Some targets named below: CDK5/p25(h) (Homo sapiens, UniProt Q00535); Pim-2(h) (Homo sapiens, UniProt Q9P1W9); Abl(T315I)(h) (Homo sapiens, UniProt P00519, T315I).
What all share (assay): Kinase Profiling Assay
Holding throughout (assay type): biochemical
Holding throughout (details): 100 μM

Another experiment has as its target T1, CaMKIV(h) (Homo sapiens, UniProt Q16566).
T1 sequence (Q16566 1-473): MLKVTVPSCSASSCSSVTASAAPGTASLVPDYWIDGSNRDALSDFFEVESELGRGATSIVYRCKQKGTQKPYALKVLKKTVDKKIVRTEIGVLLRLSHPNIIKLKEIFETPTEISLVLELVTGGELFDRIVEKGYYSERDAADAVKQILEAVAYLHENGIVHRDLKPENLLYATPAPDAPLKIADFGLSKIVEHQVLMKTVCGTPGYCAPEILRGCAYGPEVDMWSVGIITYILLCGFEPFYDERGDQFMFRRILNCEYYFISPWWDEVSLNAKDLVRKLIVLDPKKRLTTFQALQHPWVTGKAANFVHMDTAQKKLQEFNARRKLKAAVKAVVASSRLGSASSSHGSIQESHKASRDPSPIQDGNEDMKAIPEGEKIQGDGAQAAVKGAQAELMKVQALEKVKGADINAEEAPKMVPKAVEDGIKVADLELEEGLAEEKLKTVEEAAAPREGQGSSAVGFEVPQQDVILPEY

Another experiment has as its target T2, MKK6(h) (Homo sapiens, UniProt P52564).
T2 sequence (P52564 1-334): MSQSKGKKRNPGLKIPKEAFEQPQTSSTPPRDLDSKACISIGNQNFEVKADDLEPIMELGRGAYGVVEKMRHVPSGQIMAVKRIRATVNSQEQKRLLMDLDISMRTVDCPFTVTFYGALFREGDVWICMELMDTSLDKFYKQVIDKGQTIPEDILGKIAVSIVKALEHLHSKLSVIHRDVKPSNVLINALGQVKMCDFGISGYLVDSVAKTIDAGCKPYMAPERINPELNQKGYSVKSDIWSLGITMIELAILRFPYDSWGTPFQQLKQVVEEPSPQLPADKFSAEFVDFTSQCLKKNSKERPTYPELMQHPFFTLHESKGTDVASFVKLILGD

The target of a further experiment is T3, SAPK3(h) (Homo sapiens, UniProt P53778).
T3 sequence (P53778 1-367): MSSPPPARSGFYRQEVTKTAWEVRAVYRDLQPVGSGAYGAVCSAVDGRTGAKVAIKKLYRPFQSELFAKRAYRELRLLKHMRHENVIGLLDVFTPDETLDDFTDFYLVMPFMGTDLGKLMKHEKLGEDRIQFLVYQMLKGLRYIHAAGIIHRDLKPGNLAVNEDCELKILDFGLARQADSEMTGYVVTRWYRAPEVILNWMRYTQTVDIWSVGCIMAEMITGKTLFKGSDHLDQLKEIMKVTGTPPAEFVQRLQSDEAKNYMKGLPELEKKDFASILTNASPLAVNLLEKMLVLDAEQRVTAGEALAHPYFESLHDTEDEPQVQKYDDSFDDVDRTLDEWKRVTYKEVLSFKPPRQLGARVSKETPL

A further experiment concerns the target T4, NEK2(h) (Homo sapiens, UniProt P51955).
T4 sequence (P51955 1-445): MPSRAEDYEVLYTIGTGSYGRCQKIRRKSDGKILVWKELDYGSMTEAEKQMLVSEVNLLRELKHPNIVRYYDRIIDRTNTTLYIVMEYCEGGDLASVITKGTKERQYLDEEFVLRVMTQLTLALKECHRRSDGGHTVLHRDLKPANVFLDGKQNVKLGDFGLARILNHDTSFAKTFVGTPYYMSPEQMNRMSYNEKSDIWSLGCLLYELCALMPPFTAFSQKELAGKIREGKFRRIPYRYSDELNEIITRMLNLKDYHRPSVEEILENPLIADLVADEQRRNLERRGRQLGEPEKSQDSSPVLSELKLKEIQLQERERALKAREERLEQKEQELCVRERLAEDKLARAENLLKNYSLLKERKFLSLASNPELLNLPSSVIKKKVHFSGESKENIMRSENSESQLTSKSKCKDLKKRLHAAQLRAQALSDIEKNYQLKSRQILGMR

A further experiment has as its target T5, TAO1(h) (Homo sapiens, UniProt Q7L7X3).
T5 sequence (Q7L7X3 1-1001): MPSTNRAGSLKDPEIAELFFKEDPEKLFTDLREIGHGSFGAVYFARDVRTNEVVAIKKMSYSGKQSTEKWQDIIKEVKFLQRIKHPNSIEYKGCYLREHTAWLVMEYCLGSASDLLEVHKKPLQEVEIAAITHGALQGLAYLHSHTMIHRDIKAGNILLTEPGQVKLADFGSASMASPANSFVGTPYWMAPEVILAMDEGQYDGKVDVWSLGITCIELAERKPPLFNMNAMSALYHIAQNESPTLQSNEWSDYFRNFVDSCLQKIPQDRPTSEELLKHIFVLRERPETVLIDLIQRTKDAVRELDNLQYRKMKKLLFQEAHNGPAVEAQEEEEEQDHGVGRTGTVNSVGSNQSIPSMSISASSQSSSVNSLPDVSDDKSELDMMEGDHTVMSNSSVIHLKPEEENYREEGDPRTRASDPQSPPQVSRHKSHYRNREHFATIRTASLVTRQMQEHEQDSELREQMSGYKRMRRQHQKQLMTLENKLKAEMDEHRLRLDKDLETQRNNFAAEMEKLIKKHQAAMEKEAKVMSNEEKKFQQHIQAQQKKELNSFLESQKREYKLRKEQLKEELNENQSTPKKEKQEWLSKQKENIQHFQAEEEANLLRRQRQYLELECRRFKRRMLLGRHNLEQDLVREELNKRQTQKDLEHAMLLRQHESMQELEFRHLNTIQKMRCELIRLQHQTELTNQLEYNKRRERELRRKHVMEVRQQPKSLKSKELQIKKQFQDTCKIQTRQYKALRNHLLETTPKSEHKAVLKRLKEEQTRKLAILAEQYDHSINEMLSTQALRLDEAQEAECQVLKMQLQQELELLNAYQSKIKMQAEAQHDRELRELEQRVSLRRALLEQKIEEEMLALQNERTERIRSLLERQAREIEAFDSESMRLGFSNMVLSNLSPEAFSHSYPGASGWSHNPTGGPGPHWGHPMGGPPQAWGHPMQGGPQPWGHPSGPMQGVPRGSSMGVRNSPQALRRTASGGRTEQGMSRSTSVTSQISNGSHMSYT

Results on four sequences are retold here after patent publication US20190134153A1, “IMMUNOMODULATORY EFFECT OF INHALED KINASE INHIBITOR PEPTIDES IN LUNG” (MOERAE MATRIX, INC., priority 2017, published 2019).

Sequence of Pim-2(h) (Q9P1W9 whole entry): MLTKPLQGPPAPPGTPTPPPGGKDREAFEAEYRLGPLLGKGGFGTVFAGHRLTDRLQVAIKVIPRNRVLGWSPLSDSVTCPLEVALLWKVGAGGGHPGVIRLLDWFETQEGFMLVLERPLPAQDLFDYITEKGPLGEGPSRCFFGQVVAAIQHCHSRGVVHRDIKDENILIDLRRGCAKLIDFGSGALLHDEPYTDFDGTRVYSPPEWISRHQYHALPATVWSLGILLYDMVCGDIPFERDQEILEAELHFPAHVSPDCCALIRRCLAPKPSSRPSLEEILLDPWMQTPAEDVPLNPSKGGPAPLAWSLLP
Sequence of CDK5/p25(h) (Q00535 whole entry): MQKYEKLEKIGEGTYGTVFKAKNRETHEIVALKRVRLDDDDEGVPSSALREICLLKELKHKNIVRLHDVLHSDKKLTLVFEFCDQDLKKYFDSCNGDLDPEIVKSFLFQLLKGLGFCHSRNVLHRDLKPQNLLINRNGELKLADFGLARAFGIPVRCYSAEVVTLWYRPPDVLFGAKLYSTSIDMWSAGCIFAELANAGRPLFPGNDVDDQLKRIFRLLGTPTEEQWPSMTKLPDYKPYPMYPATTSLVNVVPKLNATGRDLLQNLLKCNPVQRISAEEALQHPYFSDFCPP
Sequence of CDK5/p25(h) (Q15078 99-307 partner limits assumed): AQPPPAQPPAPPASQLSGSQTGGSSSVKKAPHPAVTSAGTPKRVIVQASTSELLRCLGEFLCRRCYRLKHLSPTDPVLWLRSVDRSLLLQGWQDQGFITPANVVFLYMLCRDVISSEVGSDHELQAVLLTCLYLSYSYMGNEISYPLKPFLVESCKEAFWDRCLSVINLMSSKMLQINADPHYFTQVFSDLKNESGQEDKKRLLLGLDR

Regarding HRRIKAWLKKIKALARQLGVAA [MMI-0500], the “% activity” value is −1% with CaMKIV(h); 18% with MKK6(h); 66% with CDK5/p25(h); 46% in the experiment with Pim-2(h); 24% with SAPK3(h); 16% in the experiment with Abl(T315I)(h). Further, the “% activity” value with NEK2(h) is on record as 0%; with TAO1(h) it was 24%.
For YARAAARQARAKALNRQLGVA [MMI-0200], the “% activity” value was 71% in the experiment with CaMKIV(h); 98% with MKK6(h); 97% with CDK5/p25(h); 74% in the experiment with Pim-2(h); 97% with SAPK3(h); 108% with Abl(T315I)(h). The “% activity” value with NEK2(h) was determined as 97%.
As to KAFAKLAARLYRKALARQLGVAA [MMI-0400], the “% activity” value in the experiment with CaMKIV(h) amounted to 18%; with MKK6(h), 44%; with CDK5/p25(h), 92%; with Pim-2(h), 92%; with SAPK3(h) it was 79%; with NEK2(h), 61%. In the experiment with TAO1(h), the “% activity” value is reported as 73%.
Regarding FAKLAARLYRKALARQLGVAA [MMI-0300], the “% activity” value in the experiment with CaMKIV(h) is 17%; in the experiment with MKK6(h), 48%; with CDK5/p25(h), 89%; with Pim-2(h), 76%; with SAPK3(h), 84%; with Abl(T315I)(h) it was 97%. Also, the “% activity” value with NEK2(h) is recorded as 78%; in the experiment with TAO1(h) it was 82%.
